Read-outs that look alike come from different tables or passages of the source. Each block holds one binder with its values, some of them ahead of it. Square brackets hold non-standard residues; d marks the D form. Ends that are not written are not given here. Phe(4-F) = N[C@@H](Cc1ccc(F)cc1)C(=O)O; Cit = NC(=O)NCCC[C@H](N)C(=O)O; Nle = CCCC[C@H](N)C(=O)O; Abu = CC[C@H](N)C(=O)O; Aib = CC(C)(N)C(=O)O; Sar = CNCC(=O)O
How the values were obtained:
CDK2/cyclin A [1] = molecular target: T1, CDK2/cyclin A (UniProt P24941 1-298; P20248 1-432); assay: cell-based or functional assay
Cyclin A = Cyclin A (UniProt P20248 173-432, limits assumed); assay: competitive cyclin A binding ELISA, competitor: immobilised p21 peptide
CDK2/cyclin A [2] = molecular target: T1, CDK2/cyclin A; assay: cell-based or functional assay; remark: listed apart in the source
CDK1/Cyclin B complex = CDK1/Cyclin B complex (UniProt P06493 1-297; P14635 1-433); assay: cell-based or functional assay
CDK2/cyclin A complex = CDK2/cyclin A complex (UniProt P24941 1-298; P20248 1-432); assay: cell-based or functional assay
CDK2/cyclin A [3] = molecular target: T1, CDK2/cyclin A; assay: cell-based or functional assay; remark: listed apart in the source
CDK4/Cyclin D1 complex [4] = molecular target: T2, CDK4/Cyclin D1 complex (UniProt P11802 1-303; P24385 1-295); assay: cell-based or functional assay
CDK2/Cyclin E complex [5] = molecular target: T3, CDK2/Cyclin E complex (UniProt P24941 1-298; P24864 1-410); assay: cell-based or functional assay
CDK4/Cyclin D1 complex [6] = molecular target: T2, CDK4/Cyclin D1 complex; assay: cell-based or functional assay; remark: listed apart in the source
CDK2/Cyclin E complex [7] = molecular target: T3, CDK2/Cyclin E complex; assay: cell-based or functional assay; remark: listed apart in the source
Cyclin D1 = Cyclin D1 (UniProt P24385 1-295, limits assumed); assay: competitive ELISA: cyclin D1 binding to immobilised biotinyl-Ahx-p21(149-159)
Cyclin D1, sequence (P24385 whole entry): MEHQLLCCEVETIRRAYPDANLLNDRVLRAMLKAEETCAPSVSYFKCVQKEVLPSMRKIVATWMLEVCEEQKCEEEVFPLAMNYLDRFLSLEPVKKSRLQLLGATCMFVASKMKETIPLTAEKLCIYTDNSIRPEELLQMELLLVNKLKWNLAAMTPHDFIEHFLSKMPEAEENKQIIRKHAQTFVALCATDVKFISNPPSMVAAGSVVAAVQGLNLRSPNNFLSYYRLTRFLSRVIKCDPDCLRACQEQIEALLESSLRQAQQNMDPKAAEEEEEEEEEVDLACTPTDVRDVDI
From the text: The amount of bound Cyclin D1/Cyclin A was immunodetected and quantified by Turbo-ELISA reagent (PIERCE).

CDK1/Cyclin B complex, sequence (P06493 other isoform, or with tags, fused parts or gaps, chain 1 of 2): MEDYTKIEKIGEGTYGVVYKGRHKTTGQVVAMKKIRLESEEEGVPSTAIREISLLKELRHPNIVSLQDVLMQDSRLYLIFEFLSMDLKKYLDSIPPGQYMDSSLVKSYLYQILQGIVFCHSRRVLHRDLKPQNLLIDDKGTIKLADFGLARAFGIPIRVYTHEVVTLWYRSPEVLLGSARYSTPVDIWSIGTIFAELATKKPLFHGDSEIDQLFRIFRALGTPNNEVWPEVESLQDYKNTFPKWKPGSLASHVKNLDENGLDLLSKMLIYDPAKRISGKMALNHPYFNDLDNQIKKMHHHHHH
CDK1/Cyclin B complex, sequence (P14635 other isoform, or with tags, fused parts or gaps, chain 2 of 2): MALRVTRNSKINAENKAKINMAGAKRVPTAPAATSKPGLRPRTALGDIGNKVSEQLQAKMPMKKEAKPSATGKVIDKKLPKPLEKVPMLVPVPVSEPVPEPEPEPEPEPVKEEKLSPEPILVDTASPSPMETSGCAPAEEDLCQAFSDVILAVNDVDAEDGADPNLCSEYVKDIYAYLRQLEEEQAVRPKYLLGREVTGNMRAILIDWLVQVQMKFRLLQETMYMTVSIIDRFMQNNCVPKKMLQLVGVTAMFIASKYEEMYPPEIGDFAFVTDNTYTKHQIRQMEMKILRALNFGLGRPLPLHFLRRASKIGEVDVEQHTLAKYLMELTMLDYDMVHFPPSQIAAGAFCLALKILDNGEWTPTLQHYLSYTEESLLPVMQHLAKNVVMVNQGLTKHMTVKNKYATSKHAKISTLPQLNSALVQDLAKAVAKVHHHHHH
T2 sequence (P11802 other isoform, or with tags, fused parts or gaps, chain 1 of 2): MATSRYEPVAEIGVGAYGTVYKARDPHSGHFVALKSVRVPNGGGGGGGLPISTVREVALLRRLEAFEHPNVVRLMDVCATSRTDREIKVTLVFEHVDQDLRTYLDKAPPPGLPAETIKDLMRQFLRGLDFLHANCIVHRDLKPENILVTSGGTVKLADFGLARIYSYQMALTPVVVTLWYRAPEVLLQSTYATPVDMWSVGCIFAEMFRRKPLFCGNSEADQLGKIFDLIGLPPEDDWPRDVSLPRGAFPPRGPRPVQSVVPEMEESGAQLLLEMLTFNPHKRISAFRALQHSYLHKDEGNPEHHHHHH
T2 sequence (P24385 whole entry, chain 2 of 2): as the sequence (P24385 whole entry) above

B1: H-Ala-Ala-Lys-Arg-Arg-Leu-Ala-pFPhe-NH2 (peptide)
peptide: H-AAKRRLA[Phe(4-F)]-NH2
SMILES: CC(C)C[C@H](NC(=O)[C@H](CCCNC(=N)N)NC(=O)[C@H](CCCNC(=N)N)NC(=O)[C@H](CCCCN)NC(=O)[C@H](C)NC(=O)[C@H](C)N)C(=O)N[C@@H](C)C(=O)N[C@@H](Cc1ccc(F)cc1)C(N)=O
Relative activity, Kinase Inhibition (CDK2/cyclin A kinase assay, pRb substrate, [ATP] = 100 µM) (CDK2/cyclin A [1]): 20 relative to H-His-Ala-Lys-Arg-Arg-Leu-Ile-Phe-NH2 (=1)

B2: GST-pRb(772-928) (other, UniProt P06400 772-928, looked up)
chain: ASTRPPTLSPIPHIPRSPYKFPSSPLRIPGGNIYISPLKSPYKISEGLPTPTKMTPRSRILVSIGESFGTSEKFQKINQMVCNSDRVLKRSAEGSNPPKPLKKLRFDIEGSDEADGSKHLPGESKFQQKLAEMTSTRTRMQKQKMNDSMDTSNKEEK
notes: range 772-928; Limits of the pRb part are printed inconsistently; also called GST-Rb; GST-Rb(772-928); not shown: glutathione S-transferase (GST) fusion partner
IC50 (Cyclin A): 9 µM

B3: H-Ala-Ala-Lys-Arg-Cit-Leu-Ile-pFPhe-NH2 (peptide)
peptide: H-AAKR[Cit]LI[Phe(4-F)]-NH2
SMILES: CC[C@H](C)[C@H](NC(=O)[C@H](CC(C)C)NC(=O)[C@H](CCCNC(N)=O)NC(=O)[C@H](CCCNC(=N)N)NC(=O)[C@H](CCCCN)NC(=O)[C@H](C)NC(=O)[C@H](C)N)C(=O)N[C@@H](Cc1ccc(F)cc1)C(N)=O
Relative activity, Kinase Inhibition (CDK2/cyclin A kinase assay, pRb substrate, [ATP] = 100 µM) (CDK2/cyclin A [1]): 10 relative to H-His-Ala-Lys-Arg-Arg-Leu-Ile-Phe-NH2 (=1)

B4: H-Ala-Ala-Abu-Arg-Ser-Leu-Ile-pFPhe-NH2 (peptide)
peptide: H-AA[Abu]RSLI[Phe(4-F)]-NH2
SMILES: CC[C@H](NC(=O)[C@H](C)NC(=O)[C@H](C)N)C(=O)N[C@@H](CCCNC(=N)N)C(=O)N[C@@H](CO)C(=O)N[C@@H](CC(C)C)C(=O)N[C@H](C(=O)N[C@@H](Cc1ccc(F)cc1)C(N)=O)[C@@H](C)CC
Relative activity, Kinase Inhibition (CDK2/cyclin A kinase assay, pRb substrate, [ATP] = 100 µM) (CDK2/cyclin A [1]): 14 relative to H-His-Ala-Lys-Arg-Arg-Leu-Ile-Phe-NH2 (=1)

Binder: H-AAKRRLIF-NH2 [H-Ala-Ala-Lys-Arg-Arg-Leu-Ile Phe-NH2]
Relative activity, CDK2/cyclin A kinase inhibition (pRb substrate) (CDK2/cyclin A complex): 1.8 relative to HAKRRLIF-NH2

Binder: H-HAKARLIF-NH2 [H-His-Ala-Lys-Ala-Arg-Leu-Ile-Phe-NH2]
Relative activity, Kinase Inhibition (CDK2/cyclin A kinase assay, pRb substrate, [ATP] = 100 µM) (CDK2/cyclin A [3]): < 0.1 relative to H-His-Ala-Lys-Arg-Arg-Leu-Ile-Phe-NH2 (=1)

Binder: HSKRRLDL-NH2 [P21 C-terminus-LDL hybrid HSKRRLDL-NH2]
% Inhibition, cyclin D1/CDK4 kinase (CDK4/Cyclin D1 complex [6]): 24%
% Inhibition, cyclin E/CDK2 kinase (CDK2/Cyclin E complex [7]): 74%
IC50 (Cyclin D1): > 200 µM

Binder: H-HAKRNLIF-NH2 [H-His-Ala-Lys-Arg-Asn-Leu-Ile-Phe-NH2]
Relative activity, Kinase Inhibition (CDK2/cyclin A kinase assay, pRb substrate, [ATP] = 100 µM) (CDK2/cyclin A [2]): < 0.1 relative to H-His-Ala-Lys-Arg-Arg-Leu-Ile-Phe-NH2 (=1)

B6: H-His-Ala-Lys-Arg-Aib-Leu-Ile-Phe-NH2 (peptide)
peptide: H-HAKR[Aib]LIF-NH2
SMILES: CC[C@H](C)[C@H](NC(=O)[C@H](CC(C)C)NC(=O)C(C)(C)NC(=O)[C@H](CCCNC(=N)N)NC(=O)[C@H](CCCCN)NC(=O)[C@H](C)NC(=O)[C@@H](N)Cc1c[nH]cn1)C(=O)N[C@@H](Cc1ccccc1)C(N)=O
Relative activity, Kinase Inhibition (CDK2/cyclin A kinase assay, pRb substrate, [ATP] = 100 µM) (CDK2/cyclin A [2]): < 0.1 relative to H-His-Ala-Lys-Arg-Arg-Leu-Ile-Phe-NH2 (=1)

Binder: PVKRRLDL-NH2 (Derived from E2F1) [E2F1 peptide PVKRRLDL-NH2]
% Inhibition, cyclin D1/CDK4 kinase (CDK4/Cyclin D1 complex [6]): 58%
IC50, cyclin D1/CDK4 kinase (CDK4/Cyclin D1 complex [6]): 99 µM
% Inhibition, cyclin E/CDK2 kinase (CDK2/Cyclin E complex [7]): 74%
IC50, cyclin E/CDK2 kinase (CDK2/Cyclin E complex [7]): 2.1 µM
IC50 (Cyclin D1): > 100 µM

The remaining lines, values ahead:

Relative activity, Kinase Inhibition (CDK2/cyclin A kinase assay, pRb substrate, [ATP] = 100 µM) (CDK2/cyclin A [2]): 0.7 relative to H-His-Ala-Lys-Arg-Arg-Leu-Ile-Phe-NH2 (=1)
Binder: H-HAKRSLIF-NH2 [H-His-Ala-Lys-Arg-Ser-Leu-Ile-Phe-NH2]

IC50, CDK1-Cyclin B phosphorylation of GST-Rb (CDK1/Cyclin B complex): > 200 µM
IC50, CDK1-Cyclin B phosphorylation of Histone 1 (CDK1/Cyclin B complex): 200 µM
Binder: DFYHAKRRLIFS-NH2 [p21 (149-160)S153A DFYHAKRRLIFS-NH2]

Relative activity, CDK2/cyclin A kinase inhibition (pRb substrate) (CDK2/cyclin A complex): < 0.1 relative to HAKRRLIF-NH2
Binder: XAKRRLIF (Pya (3-pyridylalanine) at position 1; C-terminal amide) [H-Pya-Ala-Lys-Arg-Arg-Leu-Ile Phe-NH2]

IC50, CDK1-Cyclin B phosphorylation of GST-Rb (CDK1/Cyclin B complex): > 200 µM
% Inhibition, cyclin D1/CDK4 kinase (CDK4/Cyclin D1 complex [4]): 70%
IC50, cyclin D1/CDK4 kinase, GST-pRb (CDK4/Cyclin D1 complex [4]): 13 µM
% Inhibition, cyclin E/CDK2 kinase (CDK2/Cyclin E complex [5]): 75%
IC50, cyclin E/CDK2 kinase, GST-pRb (CDK2/Cyclin E complex [5]): 2 µM
Binder: DFYHSKRRLIF-NH2 [p21 (149-159) DFYHSKRRLIF-NH2]

Relative activity, Kinase Inhibition (CDK2/cyclin A kinase assay, pRb substrate, [ATP] = 100 µM) (CDK2/cyclin A [3]): < 0.1 relative to H-His-Ala-Lys-Arg-Arg-Leu-Ile-Phe-NH2 (=1)
B5: H-His-Ala-Lys-Nle-Arg-Leu-Ile-Phe-NH2 (peptide)
peptide: H-HAK[Nle]RLIF-NH2
SMILES: CCCC[C@H](NC(=O)[C@H](CCCCN)NC(=O)[C@H](C)NC(=O)[C@@H](N)Cc1c[nH]cn1)C(=O)N[C@@H](CCCNC(=N)N)C(=O)N[C@@H](CC(C)C)C(=O)N[C@H](C(=O)N[C@@H](Cc1ccccc1)C(N)=O)[C@@H](C)CC

Relative activity, Kinase Inhibition (CDK2/cyclin A kinase assay, pRb substrate, [ATP] = 100 µM) (CDK2/cyclin A [2]): < 0.1 relative to H-His-Ala-Lys-Arg-Arg-Leu-Ile-Phe-NH2 (=1)
Binder: H-HAKRPLIF-NH2 [H-His-Ala-Lys-Arg-Pro-Leu-Ile-Phe-NH2]

Relative activity, Kinase Inhibition (CDK2/cyclin A kinase assay, pRb substrate, [ATP] = 100 µM) (CDK2/cyclin A [2]): < 0.1 relative to H-His-Ala-Lys-Arg-Arg-Leu-Ile-Phe-NH2 (=1)
B7: H-His-Ala-Lys-Arg-Sar-Leu-Ile-Phe-NH2 (peptide)
peptide: H-HAKR[Sar]LIF-NH2
SMILES: CC[C@H](C)[C@H](NC(=O)[C@H](CC(C)C)NC(=O)CN(C)C(=O)[C@H](CCCNC(=N)N)NC(=O)[C@H](CCCCN)NC(=O)[C@H](C)NC(=O)[C@@H](N)Cc1c[nH]cn1)C(=O)N[C@@H](Cc1ccccc1)C(N)=O

Reference: patent US20040176301A1 (CYCLACEL, published 2004)
